Assay [1] concerns the target T1, human PSCA (prostate stem cell antigen, PSCA v.1) (human, UniProt O43653 12-83).
T1 construct: The whole entry is named; also called PSCA变体1; 细胞表面PSCA
T1 sequence: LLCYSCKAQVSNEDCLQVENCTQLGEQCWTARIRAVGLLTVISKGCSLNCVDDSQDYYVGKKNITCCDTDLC
Nature of the assay: FACS-based affinity on cell-surface PSCA (LAPC9AI cells).

Assay [2] concerns the target T1, human PSCA (prostate stem cell antigen, …). Nature of the assay: FACS saturation binding on LAPC9AI cells, one-site binding (hyperbola) fit, Graphpad Prism.

“And” between values parts separate entries of the source, which are not always exact repeats. Equal values may be shown once.

B1: anti-PSCA MAb H1-1.10 (antibody, V domains shown)
VH: QLQESGPGLVKPSQTLSLTCTVSGGSISSGGYYWSWIRQHPGKGLEWIGYIYYSGSTYYNPSLKSRVTISVDTSKNQFSLKLSSGTAADTAVYYCARDHITMVRGVPKGMDVWGQGTTVTVSS
VL: QLTQSPSSLSASVGDRVTITCRASQSISRHLNWYQQKPGKAPKFLIYVASSLQSGVPSRFSGSGSGTDFTLTISSLQPEDFATYFCQQSYSIPRTFGQGTKVEIKR
notes: Fully human IgG1 (gamma 1) / kappa antibody from XenoMouse immunised with B300.19/PSCA cells; tested as hybridoma supernatant or purified antibody; also called PSCA H1-1.10; H1/1.10.1.1
For orientation: Kd means a measure of binding affinity in units of concentration. A higher Kd goes with weaker binding. On to B1, for which the Kd was 0.6 nM in assay [1]; 0.593 nM and 0.636 nM in assay [2].

Source of the values: CN101223191A (AGENSYS INC, dated 2008).
